Assay [1] addresses biotinylated lysocin E derivative, Bu-type. Nature of the assay: BLI; BLItz system, room temperature; biotinylated ligand (0.1 mg/ml) immobilised on a streptavidin biosensor; PBS with 0.05% Tween-20; 300 s association and 300 s dissociation.
The target in assay [2] is biotinylated lysocin E derivative, natural type. The description is as above.

One may read the Kd as the free concentration of one partner at which half of the binding sites on the other are occupied at equilibrium, for simple one-to-one binding. A high value points to a looser complex.

For the substance “recombinant human apolipoprotein A-I, wild type (from UniProt P02647 19-267) (natural protein)”, the Kd in assay [1] was determined as 3.4 µM; in assay [2], 3.6 µM.

These data come from PMC8568920, “Serum apolipoprotein A-I potentiates the therapeutic efficacy of lysocin E against Staphylococcus aureus” (Nature Communications, 2021).
